Results: paper PMC5602538, “Assessment of the Drug Interaction Potential of Unconjugated and GalNAc3-Conjugated 2′-MOE-ASOs” (Molecular Therapy. Nucleic Acids, 2017)
{GalNAc3} = trishexylamino-C6 triantennary GalNAc conjugate

Columns and labels:
CYP2B6 = CYP2B6 enzyme activity induction in plated human hepatocytes; settings: ASO 100 μM, human hepatocytes 72 hr, vs PBS 1% vehicle, mean ± SD of triplicate
Procedure: (§1) Upon receipt, sandwich-cultured cryopreserved human hepatocytes (with Matrigel) plated on collagen-coated 24-well plates were inspected under a microscope for general morphology and viability. Fresh culture medium (OptiCulture Hepatocyte Media) was added to each plate that passed the visual inspection. The plates were then placed in an incubator set to 37°C with 5% carbon dioxide (CO2) for overnight acclimation. […] During this time, cells in parallel wells were also treated with 50.0 μM omeprazole (inducer of CYP1A2), 1,000 μM phenobarbital (inducer of CYP2B6), or 10.0 μM rifampicin (inducer of CYP3A4) in triplicate, respectively.
(§2) The plates were then incubated at 37°C with 5% CO2 for 60 min. […] Aliquots of the supernatants were analyzed by LC-MS/MS for the formation of acetaminophen, hydroxyl-bupropion, or hydroxyl-midazolam as markers for enzyme activity of CYP1A2, CYP2B6, and CYP3A4, respectively.
(§3) The activity of each CYP enzyme was measured by comparing the peak area ratio of the corresponding product to the peak area ratio of the internal standard. The fold induction was calculated by dividing the peak area ratio of each individual well from the treatment group by the mean of the peak area ratios obtained from the vehicle control wells. […] The ΔCƬ was calculated as follows: ΔCƬ = CƬ (CYP) − CƬ (GAPDH). […] The ΔΔCƬ was calculated as follows: ΔΔCƬ = Δ CƬ (Treatment) − Δ CƬ (Vehicle). […]

CYP1A2 = CYP1A2 enzyme activity induction in plated human hepatocytes; settings: ASO 100 μM, human hepatocytes 72 hr, vs PBS 1% vehicle, mean ± SD of triplicate
Procedure: as §1, §2, §3

OAT3 = test system: T1, OAT3; test: OAT3 inhibition study in MDCK cells; type: in vitro ADME; settings: 100 μM ASO, 10 μM p-aminohippurate
T1 construct: expressed in transfected cells; host or cells: MDCK-II
Procedure: A 96-well cell culture plate containing a monolayer of MDCK-II cells grown on a permeable support and a corresponding receiver tray was used. The basolateral compartment of the culture plate and wells were washed with warm HBSS three times, with wells of the culture plate serving as the apical compartment. The wash was aspirated by adding 150 μL of 37°C HBSS to both compartments. […] The pre-incubation buffer from both compartments was aspirated and 150 μL of the following was added to the basal compartment. […] OATP1B1, 2 μM [^3H]-estradiol-17 β-D-glucuronide; and OATP1B3, 2 μM [^3H]-cholecystokinin octapeptide (CCK-8). […] Plates were incubated at 37°C with orbital shaking at 60 rpm for 5 min. Both sides of the permeable support were washed four times with ice-cold PBS and 60 μL of cell extraction solution was added to each well. Plates were agitated for 15 min at 120 rpm, after which a 30-μL sample of the extract was collected. […] Test article concentrations, including control samples, were evaluated by an LC-MS method. Signal to noise for probe substrates was calculated by dividing the uptake of the probe substrate in transporter-expressing cells by the uptake of probe substrate in control cells not expressing the transporter of interest.

CYP3A4 mRNA = CYP3A4 mRNA induction in plated human hepatocytes; settings: ASO 100 μM, human hepatocytes 72 hr, vs PBS 1% vehicle, mean ± SD of triplicate
Procedure: as §1
(§4) After collection of the supernatant for catalytic analysis, the remaining cells were washed and lysed with QIAGEN Buffer RLT from the QIAGEN RNeasy Kit. […]
(§5) The activity of each CYP enzyme was measured by comparing the peak area ratio of the corresponding product to the peak area ratio of the internal standard. The fold induction was calculated by dividing the peak area ratio of each individual well from the treatment group by the mean of the peak area ratios obtained from the vehicle control wells. […] The ΔCƬ was calculated as follows: ΔCƬ = CƬ (CYP) − CƬ (GAPDH). […] The ΔΔCƬ was calculated as follows: ΔΔCƬ = Δ CƬ (Treatment) − Δ CƬ (Vehicle). The fold induction of the target CYP was calculated using the following equation: Fold=2^-ΔΔCT.

OATP1B3 = test system: T2, OATP1B3; test: OATP1B3 inhibition study in MDCK cells; type: in vitro ADME; settings: 100 μM ASO, 2 μM CCK-8
T2 construct: expressed in transfected cells; host or cells: MDCK-II
Procedure: A 96-well cell culture plate containing a monolayer of MDCK-II cells grown on a permeable support and a corresponding receiver tray was used. The basolateral compartment of the culture plate and wells were washed with warm HBSS three times, with wells of the culture plate serving as the apical compartment. The wash was aspirated by adding 150 μL of 37°C HBSS to both compartments. Plates were incubated at 37°C with orbital shaking at 60 rpm for 15 min for OAT1, OAT3, OCT1, OCT2, OATP1B1, and OATP1B3 (±5 min). The pre-incubation buffer from both compartments was aspirated and 150 μL of the following was added to the basal compartment. […] Samples containing probe substrate were added to 200 μL of scintillation fluid and counted on a 1450 Microbeta (PerkinElmer), whereas samples containing the test article were kept frozen. Test article concentrations, including control samples, were evaluated by an LC-MS method.
Signal to noise for probe substrates was calculated by dividing the uptake of the probe substrate in transporter-expressing cells by the uptake of probe substrate in control cells not expressing the transporter of interest. […]

CYP1A2 mRNA = CYP1A2 mRNA induction in plated human hepatocytes; settings: ASO 100 μM, human hepatocytes 72 hr, vs PBS 1% vehicle, mean ± SD of triplicate
Procedure: as §1, §4, §5

ISIS 681257: 20-mer 2′-MOE gapmer PS/PO mixed backbone ASO conjugated to 5′-trishexylamino GalNAc3, targets Lp(a), sequence TGCTCCGTTGGTGCTTGTTC (5' {GalNAc3}, sugars by position and backbone not given here; 2'-MOE gapmer with mixed PS/PO backbone)
Fold induction of CYP2B6 enzyme activity (CYP2B6): 1.20 ± 0.389 fold
Fold induction of CYP1A2 enzyme activity (CYP1A2): 1.40 ± 0.116 fold
Enhancement of probe substrate uptake, OAT3 (OAT3): 18.2%
Fold induction of CYP3A4 mRNA (CYP3A4 mRNA): 0.213 ± 0.0471 fold
Enhancement of probe substrate uptake, OATP1B3 (OATP1B3): 38.3%
Fold induction of CYP1A2 mRNA (CYP1A2 mRNA): 1.71 ± 0.0853 fold
